Data published in PMC4374768.

How the values were obtained:
[1] = target: T1, His6-TyrR (Enterobacter cloacae UW5?) (UniProt B2D1S2); assay: EMSA; conditions: 20% glycerol, 250 mM NaCl, 50 mM Tris-Cl pH 7.5, 5 mM MgCl2, 2.5 mM DTT, 2.5 mM EDTA, 0.1 mM ATP, 0.1 mM Trp, Phe or Tyr, 1 ug poly d(I-C), 50 ng DNA, room …
T1 sequence: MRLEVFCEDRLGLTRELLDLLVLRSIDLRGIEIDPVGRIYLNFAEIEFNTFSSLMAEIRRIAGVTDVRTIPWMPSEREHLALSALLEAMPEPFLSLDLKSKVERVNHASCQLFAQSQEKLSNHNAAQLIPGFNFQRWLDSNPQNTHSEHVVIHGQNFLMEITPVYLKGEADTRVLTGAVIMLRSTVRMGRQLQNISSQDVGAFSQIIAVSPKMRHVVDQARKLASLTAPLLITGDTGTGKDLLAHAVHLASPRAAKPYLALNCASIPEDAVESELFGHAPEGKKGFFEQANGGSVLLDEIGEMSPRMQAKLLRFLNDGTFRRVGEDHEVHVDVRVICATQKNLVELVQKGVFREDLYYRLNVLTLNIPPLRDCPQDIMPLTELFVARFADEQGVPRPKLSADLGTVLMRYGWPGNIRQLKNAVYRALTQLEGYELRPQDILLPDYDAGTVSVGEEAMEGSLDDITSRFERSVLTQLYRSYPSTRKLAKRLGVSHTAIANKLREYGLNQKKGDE

[2] = target: T1, His6-TyrR (Enterobacter cloacae UW5?); assay: competition; conditions: 20% glycerol, 250 mM NaCl, 50 mM Tris-Cl pH 7.5, 5 mM MgCl2, 2.5 mM DTT, 2.5 mM EDTA, 0.1 mM ATP, 0.1 mM Trp, Phe or Tyr, 1 ug poly d(I-C), 50 ng DNA, room …

Sequence	binding [1]	binding [2]
GGTTCGCATAACAGGTGTCCTTCTGACGTTGACCTCACTTTGAGTATTAAAGAAGCGTGATGGCTGTCCAGAATTGGTCGTAAGAAGGGCATAGAAAGAATGCTTTATAAAAAAGGCTGCGCTATGCTCTTTTTTTTCATATAAATATAAACGTATATACTGATTTTTCCTTTCAGCGCCAGAGGGCATCAGAATGGG (double strand) [akr-ipdC double weak and strong box mutant]	no binding	–
GGTTCGCATAACAGGTGTCCTTCTGACGTTGACCTCACTTTGAGTATTAAAGAAGCGTGATGGCTGTCCAGAATTGGTCGTAAGAAGGGCATAGAAAGAATGCTTTATAAAAAAGGCTGCGCTATGCTCTTTTTTTTCATGTAAATGTAAACGTATACACTGATTTTTCCTTTCAGCGCCAGAGGGCATCAGAATGGG (double strand) [akr-ipdC strong box mutant]	binds more weakly	–
GGTTCGCATAACAGGTGTCCTTCTGACGTTGACCTCACTTTGAGTATTAAAGAAGCGTGATGGCTGTCCAGAATTGGTCGTAAGAAGGGCATGGAAAGAATGCTTTACAAAAAAGGCTGCGCTATGCTCTTTTTTTTCATATAAATATAAACGTATATACTGATTTTTCCTTTCAGCGCCAGAGGGCATCAGAATGGG (double strand) [akr-ipdC weak box mutant]	binds	–
GGTTCGCATAACAGGTGTCCTTCTGACGTTGACCTCACTTTGAGTATTAAAGAAGCGTGATGGCTGTCCAGAATTGGTCGTAAGAAGGGCATGGAAAGAATGCTTTACAAAAAAGGCTGCGCTATGCTCTTTTTTTTCATGTAAATGTAAACGTATACACTGATTTTTCCTTTCAGCGCCAGAGGGCATCAGAATGGG (double strand) [akr-ipdC intergenic region wild-type]	binds	binds
